Data as given in paper PMC5330652 (Journal of the American Chemical Society, 2017).

Biological target: the molecule itself
Assay: negative-stain TEM + dynamic light scattering

B1: cowpea chlorotic mottle virus (CCMV) capsid protein (natural protein)
chain: MSTVGTGKLTRAQRRAAARKNKRNTRVVQPVIVEPIASGQGKAIKAWTGYSVSKWTASCAAAEAKVTSAITISLPNELSSERNKQLKVGRVLLWLGLLPSVSGTVKSCVTETQTTAAASFQVALAVADNSKDVVAAMYPEAFKGITLEQLTADLTIYLYSSAALTEGDVIVHLEVEHVRPTFDDSFTPVY
stoichiometry N: 60
